“Also recorded” adds a separate entry of the source.
B1: HRGP: Histidine-rich glycoprotein, plasma protein purified from human plasma by lys-plasminogen affinity chromatography (protein)
chain: VSPTDCSAVEPEAEKALDLINKRRRDGYLFQLLRIADAHLDRVENTTVYYLVLDVQESDCSVLSRKYWNDCEPPDSRRPSEIVIGQCKVIATRHSHESQDLRVIDFNCTTSSVSSALANTKDSPVLIDFFEDTERYRKQANKALEKYKEENDDFASFRVDRIERVARVRGGEGTGYFVDFSVRNCPRHHFPRHPNVFGFCRADLFYDVEALDLESPKNLVINCEVFDPQEHENINGVPPHLGHPFHWGGHERSSTTKPPFKPHGSRDHHHPHKPHEHGPPPPPDERDHSHGPPLPQGPPPLLPMSCSSCQHATFGTNGAQRHSHNNNSSDLHPHKHHSHEQHPHGHHPHAHHPHEHDTHRQHPHGHHPHGHHPHGHHPHGHHPHGHHPHCHDFQDYGPCDPPPHNQGHCCHGHGPPPGHLRRRGPGKGPRPFHCRQIGSVYRLPPLRKGEVLPLPEANFPSFPLPHHKHPLKPDNQPFPQSVSESCPGKFKSGFPQVSMFFTHTFPK
B2: CD36 FP298-439: CD36-GST fusion protein which does not bind TSP-1 (protein)
chain: KAFASPVENPDNYCFCTEKIISKNCTSYGVLDISKCKEGRPVYISLPHFLYASPDVSEPIDGLNPNEEEHRTYLDIEPITGFTLQFAKRLQVNLLVKPSEKIQVLKNLKRNYIVPILWLNETGTIGDEKANMFRSQVTGKIN
modifications: left off: a dimerising Fc or GST

Columns and labels:
C57B1/6 mice = assay: In vivo subcutaneous Matrigel plug assay
Description: In vivo subcutaneous Matrigel plug assays were performed as described (23). Briefly, 500 μl of Matrigel mixed with proteins or growth factors was injected subcutaneously near the abdominal midline of C57B1/6 mice. Gels were removed after 10 days, fixed in 1% paraformaldehyde, embedded in paraffin, sectioned, and stained with hematoxylin and eosin. Immunohistochemistry was performed on unstained sections using an anti-human von Willebrand factor (vWF) IgG (Dako, Glostrup, Denmark) or isotype-matched control (Sigma) and a biotin-streptavidin-peroxidase antibody and development system (Vector Laboratories, Burlingame, Calif.) as described (24) and counterstained with Mayer's hematoxylin (ImmunoGenex, San Ramon, Calif., USA). After scanning, the degree of angiogenesis was determined by counts of vWF-positive blood vessels using Scion Image. For breast tissue, frozen sections of freshly obtained human breast carcinoma were incubated with rabbit antibody to HRGP or CSVTCG or murine monoclonal antibody to TSP, or isotype-matched controls (Sigma), and developed as above. These studies were approved by the Institutional Animal Use Committee.
Matrigel mixed was injected subcutaneously into the midline of mice and resulting plugs were harvested after 10 days, fixed, and paraffin embedded, sectioned, stained with. hematoxylin and eosin, and photographed at 200× magnification. […]

[1] = tested on: Human dermal microvascular EC (HMVEC); assay: Endothelial cell chemotaxis assay (modified Boyden chamber); format: cell-based
Description: Endothelial Cell (EC) chemotaxis assays were performed as described using a modified Boyden chamber with 8 μm gelatin-coated membranes (22). Briefly, confluent flasks of HMVEC were grown in 0.1% MVGS overnight and plated at 3×10^4 cells per well on a gelatinized porous membrane (Osmonics, Minnetonka, Minn., USA). Reagents were added to wells and cells were allowed to migrate at 5% CO2, 37° C. for 4 hours. Membranes were stained and the number of cells migrating was counted. Results were expressed as the percentage of maximum cells migrating towards bFGF (38-113 cells/10 high power fields) minus the number of cells migrating in the absence of bFGF (4-13cells/10 hpf).
HRGP inhibits the anti-chemotactic effect of TSP-1. Because the type I repeat also mediates the interaction of TSP-1 with HRGP, we studied the effect of HRGP on angiogenesis. EC migration towards bFGF was measured using a modified Boyden chamber with an 8 μm gelatin-coated membrane in the presence and absence of TSP-1 (2 nM) and increasing concentrations of HRGP (0-100 nM). Data from 3 separate experiments are expressed as a percentage of migration in the presence of bFGF alone. We measured migration of CD36-expressing microvascular EC towards bFGF. The addition of TSP-1 inhibited bFGF-induced migration of EC (approx. 30%±3% of control 100% value without added TSP-1). […]

TSP-1 = TSP-1 (Homo sapiens, UniProt P07996); details: saturable, reversible binding; read-out: affinity of HRGP binding to TSP-1; cited from earlier work
Sequence of TSP-1 (P07996 19-1170): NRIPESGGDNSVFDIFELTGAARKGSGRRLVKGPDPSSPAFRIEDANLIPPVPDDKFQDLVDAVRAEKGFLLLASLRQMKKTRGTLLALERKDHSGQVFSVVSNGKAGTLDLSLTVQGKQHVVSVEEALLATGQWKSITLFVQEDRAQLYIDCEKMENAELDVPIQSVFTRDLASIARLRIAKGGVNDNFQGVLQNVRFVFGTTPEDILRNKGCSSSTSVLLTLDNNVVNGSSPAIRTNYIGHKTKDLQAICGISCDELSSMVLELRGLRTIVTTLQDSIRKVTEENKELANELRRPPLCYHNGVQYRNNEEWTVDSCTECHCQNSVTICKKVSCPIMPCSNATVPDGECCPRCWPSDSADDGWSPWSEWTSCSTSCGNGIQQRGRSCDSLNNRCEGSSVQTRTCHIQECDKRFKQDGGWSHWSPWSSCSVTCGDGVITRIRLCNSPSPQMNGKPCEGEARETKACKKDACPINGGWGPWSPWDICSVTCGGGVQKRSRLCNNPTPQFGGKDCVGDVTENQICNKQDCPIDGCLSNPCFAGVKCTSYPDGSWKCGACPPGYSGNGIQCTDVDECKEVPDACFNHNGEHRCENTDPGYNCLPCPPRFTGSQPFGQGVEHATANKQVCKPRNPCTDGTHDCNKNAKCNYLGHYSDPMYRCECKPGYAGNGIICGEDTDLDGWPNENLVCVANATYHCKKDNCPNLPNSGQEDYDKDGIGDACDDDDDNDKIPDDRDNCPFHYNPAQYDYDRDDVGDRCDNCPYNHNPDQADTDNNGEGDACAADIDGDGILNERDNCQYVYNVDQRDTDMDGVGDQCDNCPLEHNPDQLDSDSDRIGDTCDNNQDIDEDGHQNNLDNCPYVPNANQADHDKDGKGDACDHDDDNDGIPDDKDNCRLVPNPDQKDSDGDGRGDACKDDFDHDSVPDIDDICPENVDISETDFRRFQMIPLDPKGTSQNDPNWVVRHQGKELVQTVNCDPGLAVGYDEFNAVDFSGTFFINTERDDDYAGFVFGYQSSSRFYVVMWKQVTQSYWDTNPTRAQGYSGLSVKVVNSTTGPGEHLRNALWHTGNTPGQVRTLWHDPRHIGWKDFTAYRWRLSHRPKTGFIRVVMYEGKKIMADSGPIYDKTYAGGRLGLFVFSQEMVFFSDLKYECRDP

wild type C57BL/6 mice = assay: In vivo corneal angiogenesis assay, wild type mice
Description: (§1) FIG. 3. HRGP abrogates the effect of endogenous TSP in the corneal angiogenesis assay. Pellets containing bFGF at various doses with and without HRGP (50 ng) were implanted into the corneas of wild type C57BL/6 (closed symbols) or CD 36 null mice (open symbols), and area of neovascularization was measured after five days. HRGP (--●--) augmented the dose-dependent effect of bFGF (—▪—) in the wild type mice (p=0.0004 by ANOVA). In CD36 null mice, there was an enhanced dose response to bFGF (—□—) (p=0.01), but no effect seen with the addition of HRGP (--◯--). Results represent mean±SE of>6 replicates.
(§2) In vivo corneal angiogenesis assays. Pellets composed of hydron (Hydro Med Sciences, Cranbury, N.J.) and sucralfate (Teva Pharmaceuticals, North Wales, Pa.) were mixed with proteins or growth factors, and were prepared and implanted into the comeas of C57B1/6 mice as described (38). After 5 days, eyes were viewed under a dissecting microscope and photographed with a Sony DKC-1000 digital camera. The area of neovascularization was calculated by measuring vessel length from limbus towards the pellet and number of clock hours of vascularization as described (39, 40). Studies were approved by the Institutional Animal Use Committee.
In a second type of in vivo experiment, hydron/sucralfate pellets containing bFGF, TSP-1, and/or HRGP were implanted in the corneas of C57B1/6 mice. […] Similar results were obtained when HRGP was added in a separate pellet from bFGF and TSP-1.
In fact, the dose response curve of bFGF in wild type mice in the presence of HRGP was similar to that seen with bFGF alone in the CD36 null mice. […] The resulting pellet was removed after 10 days, processed and stained for histologic examination and blood vessel counts. TSP-1 inhibited bFGF-induced blood vessel formation (14±8% of blood vessels/mm^2 seen with bFGF), and that HRGP inhibited the anti-angiogenic effect of TSP-1 (80±13%).

[2] = tested on: Human dermal microvascular EC (HMVEC); assay: Tube formation assay on Matrigel; format: cell-based
Description: Tube Formation Assay. Early passage (P2 or P3) HMVEC in 0.2% MVGS were grown on 150 μl of Matrigel (Becton Dickinson, Bedford, Mass., USA) at 3×10^4 cells per well of 48-well plates. Reagents were added and cells were incubated at 5% CO2, 37° C. for 24 hours then photographed. Images were scanned and number of branched structures was counted using Scion Image software (Frederick, Md., USA).
HRGP inhibits the anti-angiogenic effect of TSP-1 in vitro. Microvascular EC were grown on Matrigel under low serum concentrations (0.2%) in the presence of bFGF (2 ng/ml), conditions which are known to induce tube formation. […] The anti-angiogenic activity of TSP-1 was abolished by the addition of HRGP (15 nM), which restored the ability of the EC to form tubular structures. (c).

CD36 null mice = assay: In vivo corneal angiogenesis assay, CD36 null mice
Description: as §1, §2
In fact, the dose response curve of bFGF in wild type mice in the presence of HRGP was similar to that seen with bFGF alone in the CD36 null mice. […]

[3] = biological target: T1, 125I-TSP-1 binding to HRGP (Homo sapiens, UniProt P07996); assay: Solid phase binding assay, competition with CD36 fusion proteins; details: increasing concentrations of fusion protein
T1 construct: TSP-1 was purified from human platelet releasate; from tissue; host or cells: TSP-1 from human platelet releasate; HRGP from human plasma
T1 sequence (P07996 19-1170): as above
Description: Solid phase binding assays were performed as described (18). Briefly, HRGP in carbonate buffer was immobilized on 96-well strips (Immulon-4 Remove-a-well, Dynatech Laboratories Inc., Burlington, Mass., USA) overnight at 4° C. After blocking with 1% BSA, ^125I-TSP-1 was incubated in the presence of varying concentrations of CD36-FP in triplicate, and bound radioactivity was quantified on a gamma counter. Non-specific binding was determined by carrying out binding in the presence of excess unlabeled ligand.
TSP-1 binding to HRGP: competition with CD36.

Molecule	blood vessels/mm^2, % of that seen with bFGF (C57B1/6 mice; HRGP added to bFGF + TSP-1 in Matrigel, 10 days)	angiogenesis in Matrigel plug (histology) (C57B1/6 mice; plugs harvested after 10 days, representative images of 4 experiments)	EC migration towards bFGF, percentage of control ([1]; TSP-1 2 nM plus 10 nM HRGP)	EC migration towards bFGF, percentage of control ([1]; TSP-1 2 nM plus 100 nM HRGP)	Kd (TSP-1)	effect on angiogenic activity (dose response) of bFGF (wild type C57BL/6 mice; HRGP 50 ng, bFGF 2.5 to 10 ng, wild type mice, p=0.0004 by ANOVA)	Area of Neovascularization (mm^2) ± SE (wild type C57BL/6 mice; Wild type mouse, corneal pellet, 5 days)	induction of corneal angiogenesis by agent alone (wild type C57BL/6 mice; pellet without bFGF)	effect on the anti-angiogenic activity of TSP-1 (tube formation) ([2]; HRGP 15 nM added to TSP-1 2 nM + bFGF 2 ng/ml)	induction of tube formation ([2]; agent alone, low serum, Matrigel)	Area of Neovascularization (mm^2) ± SE (CD36 null mice; CD36 −/− mouse, corneal pellet, 5 days)	effect on sensitivity to low concentrations of bFGF (CD36 null mice; HRGP 50 ng, CD36 null mice)	inhibition of 125I-TSP-1 binding to immobilized HRGP [3]
B1	80±13%	had no effect	approx. 30%±15%	approx. 75%±15%	7 nM	significantly increased; also recorded: augmented	0 ± 0 mm^2	did not induce angiogenesis	abolished	did not directly induce tube formation	0.02 ± 0.004 mm^2	did not effect sensitivity; also recorded: no effect	–
B2	–	–	–	–	–	–	–	–	–	–	–	–	had no effect

— patent US20010041670A1, “Thrombospondin-binding region of histidine-rich glycoprotein and method of use” (priority 1999, published 2001)
